These results are taken from US20260116991A1 (HAINAN SIMCERE ZAIMING PHARMACEUTICAL, published 2026).

Assay [1] concerns the target T1, GPC3 endogenously expressed on HepG2 cells (UniProt P51654 25-554).
T1 construct: whole, on cells
Put plainly: FACS on HepG2 cells.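 Note: flow cytometric binding of chimeric antibodies to cells, read as mean fluorescence intensity, EC50 obtained by curve fitting of the MFI data.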
Method: (§1) The desired cells were expanded to a logarithmic growth phase in a T-75 cell culture flask, the medium was removed by pipetting, and the cells were washed twice with a PBS buffer, and digested with trypsin. Then a complete medium was added to stop the digestion, and the cells were blown into a single cell suspension. After counting, the cells were centrifuged, and the cell pellet was resuspended with an FACS buffer (PBS+2% fetal bovine serum) to 2×10⁶ cells/mL. The cell resuspension solution was added to a 96-well FACS reaction plate at 50 μl/well, and a chimeric antibody sample to be tested was added at 50 μl/well for incubation at 4° C. for 1 h. […] After the plate was centrifuged and washed 3 times with a PBS buffer, 100 μl of the resulting solution was assayed and analyzed by FACS (FACS Canto™, purchased from BD Biosciences). Data analysis was performed by software (FlowJo) to obtain the mean fluorescence intensity (MFI) of the cells. Then, analysis was performed by software (GraphPad Prism8), data were fitted, and EC₅₀ values were calculated.

For assay [2], the target named is T2, human GPC3 on CHO-K1-human GPC3 cells (clone CHOK1-hGPC3.2B5) (human, UniProt P51654 25-554).
T2 construct: whole, on cells; Stably transfected CHO-K1 clone 2B5
Put plainly: FACS on CHOK1-hGPC3.2B5 cells.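 Note: flow cytometry binding of chimeric antibodies to the cells, read out as mean fluorescence intensity, with the half-maximal concentration derived by curve fitting.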
Method: as §1

For assay [3], the target named is T3, human GPC3-His protein (human, UniProt P51654 25-559).
T3 construct: Bought protein; also called human GPC3 protein; not shown: His tag
Put plainly: ELISA, coated human GPC3, antibody 1 nM. (In general: In an ELISA, binding on a coated surface is turned into a signal by an enzyme label.)

Assay [4] deals with T3, human GPC3-His protein. Put plainly: ELISA, coated human GPC3, antibody 10 nM.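 Note: plate coated with antigen at 1 µg/mL, antibodies bound 2 h at 37 °C, detected via HRP-conjugated secondary antibody and TMB substrate, absorbance read after acid stop.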
Method: (§2) The specific method is described as follows: The antigen protein was diluted with PBS to a final concentration of 1 μg/mL, and the diluent was added to a 96-well ELISA plate at 50 μL/well. The plate was sealed with a plastic film and incubated at 4° C. overnight, washed twice with PBS the next day, and a blocking solution [PBS+2% (w/w) BSA] was added for blocking at room temperature for 2 h. […] After incubation at 37° C. for 2 h, the plate was washed 3 times with PBS. A horseradish peroxidase (HRP)-labeled secondary antibody (purchased from Merck, Cat. No. AP113P) was added for incubation at 37° C. for 1 h, and the plate was washed 5 times with PBS. A TMB substrate was added at 50 μL/well for incubation at room temperature for 10 min, then a stop solution (1.0M HCl) was added at 50 μL/well. An ELISA plate reader (Multimode Plate Reader, EnSight, purchased from Perkin Elmer) was used to read OD_{450 nm} values, with results as shown in Table 4 to Table 6, FIG. 1A, FIG. 1B, and FIG. 1C.
For assay [5], the target named is T3, human GPC3-His protein. Put plainly: ELISA, coated human GPC3, antibody 0.1 nM.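 Note: antigen coated on 96-well plates at 1 µg/mL, antibody bound 2 h at 37 °C, detected with HRP-labeled secondary antibody and TMB substrate, acid-stopped.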
Method: as §2
Assay [6] deals with T3, human GPC3-His protein. Put plainly: ELISA, coated human GPC3, antibody 100 nM.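 Note: antibodies bound to antigen-coated 96-well plates (1 µg/mL), 2 h at 37 °C, detected with HRP-labelled secondary antibody and TMB substrate, absorbance read at 450 nm.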
Method: as §2
Assay [7] has as its target T3, human GPC3-His protein. Put plainly: ELISA, coated human GPC3, antibody 0.01 nM.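 Note: Plate-bound antigen coated at 1 µg/mL, antibody incubated 2 h at 37 °C, binding detected by HRP-conjugated secondary antibody with TMB substrate, read as absorbance at 450 nm.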
Method: as §2
Assay [8] deals with T3, human GPC3-His protein. Put plainly: ELISA, coated human GPC3, antibody 0.001 nM.
Assay [9] has as its target T3, human GPC3-His protein. Put plainly: ELISA, coated human GPC3, antibody 0.0001 nM.
For assay [10], the target named is T4, monkey GPC3 on HEK293T-monkey GPC3 cells (monkey).
T4 construct: whole, on cells
Put plainly: FACS on HEK293T-monkey GPC3 cells.

The target in assay [11] is T5, human GPC3-His protein (human, UniProt P51654 25-559, limits assumed).
T5 construct: also called human GPC3 protein; not shown: His tag
Kind of assay: SPR, antibody captured on Protein A chip, human GPC3-His injected, 1:1 Langmuir model.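 Note: flow cell at 25 °C, antigen injected for 240 s at five twofold dilutions starting at 200 nM, dissociation followed up to 600 s, double-referenced sensorgrams.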 A general note: In SPR one partner is held on a chip, and binding of the other changes the refractive index at the surface.

B1: F1.2.14 human-murine chimeric antibody (antibody, human IgG1, kappa, V domains shown)
VH: RVQLQQSGAELVKPGASVRMSCKASGYTFTAYSIEWMKQNLGKSLEWIGNFRPYNDDTKYNENFKGRATLTVEKSSATVYLELSRLTSDDSAVYYCARSGPTDYFDYWGQGTTLIVSS
VL: DIQMTQSPASLSASVGETVTITCRASDNIYSYLAWYQQKQGQSPQLLVYNAKTLAEGVPSRFSGSGSVTQFSLKIISLQPEDFGTYYCQHHFGTPRTFGGGTKLEIKR
As for B1, the results for the EC50 in [1] and in assay [2] were 2.13 nM and 1.67 nM, respectively. Further, the entries for the “Max MFI” value in [1] and in [2] were 1860 MFI and 8280 MFI, respectively. Moreover, the OD450 nm was determined as 1.24 OD450 in assay [3]; 1.47 OD450 in assay [4]; 0.61 OD450 in assay [5]; 1.84 OD450 in assay [6]; 0.17 OD450 in [7]; 0.1 OD450 in [8]. In [9], this molecule returned an OD450 nm of 0.08 OD450.

B2: hAb005LH1L1b (antibody, human IgG1, V domains shown)
VH: EVQLVQSGAEVKKPGASVKVSCKASGYTFTDYEMHWVRQAPGQGLEWMGAIDPETGNTAYIQKFKGRVTMTTDKSTSTAYMELRSLRSDDTAVYYCTRFYSYSHWGQGTTVTVSS
VL: DIVMTQTPLSLPVTPGEPASISCRSSQSLVHSNRNTYLHWYLQKPGQSPQLLIYKVSNRFSGVPDRFSGSGSGTDFTLKISRVEAEDVGVYYCSQNTHVPPTFGGGTKVEIK
notes: Humanized F3.54.12
As for B2, in assay [10], the midpoint of the response, the EC50, lay at 2.62 nM and the “Max MFI” value was found to be 24300 MFI. Moreover, in [11], the Kd – broadly, the equilibrium constant for the complex coming apart – stood at 8.49 nM; the off-rate (koff) (usually the first-order rate constant of dissociation) was found to be 0.00231 s⁻¹; the association rate constant (kon) – broadly, a measure of how fast the partners come together – was determined as 272000 M⁻¹ s⁻¹.

B3: hAb006LH1L1b (antibody, human IgG1, V domains shown)
VH: EVQLVQSGAEVKKPGSSVKVSCKASGYTFSDYEIHWVRQAPGQGLEWMGAIDPKTGNTAYNQKFMGRVTITADKSTSTAYMELSSLRSEDTAVYYCTRYFSFAYWGQGTLVTVSS
VL: DIVMTQTPLSLPVTPGEPASISCRSSQTFVHSNANTYLQWYLQKPGQSPQLLIYKVSNRFSGVPDRFSGSGSGTDFTLKISRVEAEDVGVYYCFQGSHVPYTFGQGTKLEIK
notes: Humanized F3.38.7
As for B3, in [10], the concentration for a half-maximal effect (EC50) (as a rule, the midpoint of the concentration-response curve) was 1.73 nM and the “Max MFI” value stood at 31800 MFI. Moreover, in assay [11], binding was characterised by a dissociation constant (Kd) of 7.41 nM, the koff came to 0.00125 s⁻¹ and the kon is 168000 M⁻¹ s⁻¹.

B4: hAb005LH2L1b (antibody, human IgG1, V domains shown)
VH: EVQLVQSGAEVKKPGASVKVSCKASGYTFTDYEMHWVRQAPGQGLEWMGAIDPETGNTAYIQKFKGRVTLTTDKSTSTAYMELRSLRSDDTAVYYCTRFYSYSHWGQGTTVTVSS
VL: DIVMTQTPLSLPVTPGEPASISCRSSQSLVHSNRNTYLHWYLQKPGQSPQLLIYKVSNRFSGVPDRFSGSGSGTDFTLKISRVEAEDVGVYYCSQNTHVPPTFGGGTKVEIK
notes: Humanized F3.54.12
On to B4, for which, in [10], the EC50 amounted to 2.42 nM and the “Max MFI” value is 22800 MFI. In assay [11], this molecule had an equilibrium dissociation constant (Kd) of 7.85 nM, a koff of 0.00213 s⁻¹ and an on-rate (kon) of 271000 M⁻¹ s⁻¹.

B5: hAb007LH1L1b (antibody, human IgG1, V domains shown)
VH: EVQLVQSGAEVKKPGSSVKVSCKASGYTFSDYEMHWVRQAPGQGLEWMGTIDPETGNTAYNQKFKGRVTITADKSTSTAYMELSSLRSEDTAVYYCTRPYSLTYWGQGTLVTVSS
VL: DIVMTQTPLSLPVTPGEPASISCRSSQSFVHSNRDTYLQWYLQKPGQSPQLLIYKVSNRFSGVPDRFSGSGSGTDFTLKISRVEAEDVGVYYCFQGSHVPYTFGQGTKLEIK
notes: Humanized F3.81.19
Consider B5, for which, in assay [10], the EC50 is 12.4 nM and the “Max MFI” value amounted to 35400 MFI. Besides, in [11], the Kd is 2.21 nM, the koff is 0.000228 s⁻¹ and the kon was 103000 M⁻¹ s⁻¹.

B6: hAb006LH2L1b (antibody, human IgG1, V domains shown)
VH: EVQLVQSGAEVKKPGSSVKVSCKASGYTFTDYEIHWVRQAPGQGLEWMGAIDPKTGNTAYNQKFMGRVTITADKSTSTAYMELSSLRSEDTAVYYCTRYFSFAYWGQGTLVTVSS
VL: DIVMTQTPLSLPVTPGEPASISCRSSQTFVHSNANTYLQWYLQKPGQSPQLLIYKVSNRFSGVPDRFSGSGSGTDFTLKISRVEAEDVGVYYCFQGSHVPYTFGQGTKLEIK
notes: Humanized F3.38.7
In the case of B6, in assay [10], the concentration for a half-maximal effect (EC50) is 1.83 nM and the “Max MFI” value came out at 31500 MFI. In addition, in assay [11], the affinity, expressed as Kd, was 9.28 nM; the koff came out at 0.00128 s⁻¹; the kon came out at 138000 M⁻¹ s⁻¹.

B7: hAb006LH3L1c (antibody, human IgG1, V domains shown)
VH: EVQLVQSGAEVKKPGSSVKVSCKASGYTFTDYEIHWVRQAPGQGLEWMGAIDPKTGNTAYNQKFMGRVTLTADKSTSTAYMELSSLRSEDTAVYYCTRYFSFAYWGQGTLVTVSS
VL: DIVMTQTPLSLPVTPGEPASISCRSSQTFVHSNRNTYLQWYLQKPGQSPQLLIYKVSNRFSGVPDRFSGSGSGTDFTLKISRVEAEDVGVYYCFQGSHVPYTFGQGTKLEIK
notes: Humanized F3.38.7
In the case of B7, in assay [10], the EC50 stood at 4.06 nM and the “Max MFI” value was determined as 91600 MFI. In assay [11], this molecule gave a dissociation constant (Kd) of 3.15 nM, an off-rate constant (koff) of 0.001 s⁻¹ and an on-rate (kon) of 319000 M⁻¹ s⁻¹.

B8: hAb007LH1L1c (antibody, human IgG1, V domains shown)
VH: EVQLVQSGAEVKKPGSSVKVSCKASGYTFSDYEMHWVRQAPGQGLEWMGTIDPETGNTAYNQKFKGRVTITADKSTSTAYMELSSLRSEDTAVYYCTRPYSLTYWGQGTLVTVSS
VL: DIVMTQTPLSLPVTPGEPASISCRSSQSFVHSNADTYLQWYLQKPGQSPQLLIYKVSNRFSGVPDRFSGSGSGTDFTLKISRVEAEDVGVYYCFQGSHVPYTFGQGTKLEIK
notes: Humanized F3.81.19
In the case of B8, in assay [10], the concentration giving a half-maximal response (EC50) was found to be 8.8 nM and the “Max MFI” value amounted to 73600 MFI. In addition, in [11], the Kd amounted to 4.28 nM, the koff came to 0.000397 s⁻¹ and the association rate constant (kon) was found to be 92700 M⁻¹ s⁻¹.

B9: hAb007LH1L1 (antibody, human IgG1, V domains shown)
VH: EVQLVQSGAEVKKPGSSVKVSCKASGYTFSDYEMHWVRQAPGQGLEWMGTIDPETGNTAYNQKFKGRVTITADKSTSTAYMELSSLRSEDTAVYYCTRPYSLTYWGQGTLVTVSS
VL: DIVMTQTPLSLPVTPGEPASISCRSSQSFVHSNGDTYLQWYLQKPGQSPQLLIYKVSNRFSGVPDRFSGSGSGTDFTLKISRVEAEDVGVYYCFQGSHVPYTFGQGTKLEIK
notes: Humanized F3.81.19
With B9, in assay [10], the concentration for a half-maximal effect (EC50) turned out to be 4.1 nM and the “Max MFI” value came out at 36300 MFI. In [11], this molecule yielded a Kd of 1.05 nM, a dissociation rate constant (koff) of 0.000114 s⁻¹ and a kon of 109000 M⁻¹ s⁻¹.

B10: hAb007LH2L1b (antibody, human IgG1, V domains shown)
VH: EVQLVQSGAEVKKPGSSVKVSCKASGYTFTDYEMHWVRQAPGQGLEWMGTIDPETGNTAYNQKFKGRVTITADKSTSTAYMELSSLRSEDTAVYYCTRPYSLTYWGQGTLVTVSS
VL: DIVMTQTPLSLPVTPGEPASISCRSSQSFVHSNRDTYLQWYLQKPGQSPQLLIYKVSNRFSGVPDRFSGSGSGTDFTLKISRVEAEDVGVYYCFQGSHVPYTFGQGTKLEIK
notes: Humanized F3.81.19
As for B10, in assay [10], the EC50 is 13.2 nM and the “Max MFI” value was 35800 MFI. Besides, in [11], binding was characterised by a dissociation constant (Kd) of 3.58 nM, the off-rate constant (koff) turned out to be 0.000315 s⁻¹ and the association rate constant (kon) was determined as 88000 M⁻¹ s⁻¹.

B11: hAb006LH2L1 (antibody, human IgG1, V domains shown)
VH: EVQLVQSGAEVKKPGSSVKVSCKASGYTFTDYEIHWVRQAPGQGLEWMGAIDPKTGNTAYNQKFMGRVTITADKSTSTAYMELSSLRSEDTAVYYCTRYFSFAYWGQGTLVTVSS
VL: DIVMTQTPLSLPVTPGEPASISCRSSQTFVHSNGNTYLQWYLQKPGQSPQLLIYKVSNRFSGVPDRFSGSGSGTDFTLKISRVEAEDVGVYYCFQGSHVPYTFGQGTKLEIK
notes: Humanized F3.38.7
As for B11, in [10], the EC50 was 1.65 nM and the “Max MFI” value worked out at 32800 MFI. In assay [11], this molecule displayed an equilibrium dissociation constant (Kd) of 4.3 nM, a dissociation rate constant (koff) of 0.000678 s⁻¹ and a kon of 158000 M⁻¹ s⁻¹.

B12: hAb006LH3L1b (antibody, human IgG1, V domains shown)
VH: EVQLVQSGAEVKKPGSSVKVSCKASGYTFTDYEIHWVRQAPGQGLEWMGAIDPKTGNTAYNQKFMGRVTLTADKSTSTAYMELSSLRSEDTAVYYCTRYFSFAYWGQGTLVTVSS
VL: DIVMTQTPLSLPVTPGEPASISCRSSQTFVHSNANTYLQWYLQKPGQSPQLLIYKVSNRFSGVPDRFSGSGSGTDFTLKISRVEAEDVGVYYCFQGSHVPYTFGQGTKLEIK
notes: Humanized F3.38.7
Take B12: in assay [10], a half-maximal effect (EC50) was put at 1.78 nM and the “Max MFI” value was 32500 MFI. In assay [11], this molecule came in with a dissociation constant Kd of 8.4 nM, an off-rate constant (koff) of 0.00136 s⁻¹ and an on-rate constant (kon) of 162000 M⁻¹ s⁻¹.

B13: F1.21.8 human-murine chimeric antibody (antibody, human IgG1, kappa, V domains shown)
VH: EVQLQQSGPELVKPGASVKISCKTSGFLFTGHYMHWVKSSHGNILDWIGYIYPYNAISFYNQKFKGKATLTVDKSSNTAYMELRSLTSEDSAVYYCARGDYGNYVTAYWGQGTLVTVSA
VL: DVLMTQTPLSLPVSLGDQASISCRSSQSIVHSSGNTYLEWYLQKPGQSPKLLIYKVSNRFSGVPDRFSGSGSGTDFTLKISRVEAEDLGVYYCFQGSHLPWTFGGGTKLDIKR
B13: the EC50 in assay [1] worked out at 0.36 nM; in [2] it was 0.68 nM. In addition, the “Max MFI” value was 2190 MFI in assay [1] and 10700 MFI in assay [2]. Moreover, the OD450 nm in assay [3] came to 1.71 OD450; in [4], 1.7 OD450; in assay [5], 0.9 OD450; in assay [6], 2 OD450; in [7] it was 0.25 OD450; in assay [8], 0.12 OD450. For the same molecule, the OD450 nm in assay [9] was 0.08 OD450.
